The results in this text go back to patent US20170247475A1 (Boehringer Ingelheim, published 2017).

One assay addresses T1, human VEGFR1-Fc chimera (human, UniProt P17948 27-756).
T1 construct: bought (R&D Systems); also called hVEGFR1-Fc
Put plainly: ELISA, coated VEGF109. As to the method: (§1) Expression is induced by addition of 1 mM IPTG and allowed to continue for 4 hours at 37° C. Cells are harvested by centrifugation and lysed by sonication of the cell pellet. Inclusion bodies are isolated by centrifugation. […] The refolded protein is purified by ion exchange chromatography using a MonoQ5/50GL (Amersham BioSciences) column followed by gel filtration with a Superdex75 10/300 GL column (Amersheim BioSciences). […] To this end, 1 μg/mL of recombinant human VEGF109 is immobilized overnight at 4° C. in a 96-well MaxiSorp plate (Nunc, Wiesbaden, Germany). Wells are blocked with a casein solution (1%).
Background: ELISA stands for enzyme-linked immunosorbent assay.

A further assay concerns the target T2, human VEGFR2-Fc chimera (human, UniProt P35968 20-764).
T2 construct: bought (R&D Systems); also called hVEGFR2-Fc; VEGFR2-huFc
In words: ELISA, coated VEGF109. As to the method:
as §1

In assay [1] the target is VEGF. In words: cell-based or functional assay.
Assay [2] addresses VEGF. Put plainly: cell-based or functional assay. This is another data set of the same source.
Another assay addresses T3, human VEGF-C (human, UniProt P49767 103-227).
T3 construct: also called hVEGF-C
T3 sequence (looked up): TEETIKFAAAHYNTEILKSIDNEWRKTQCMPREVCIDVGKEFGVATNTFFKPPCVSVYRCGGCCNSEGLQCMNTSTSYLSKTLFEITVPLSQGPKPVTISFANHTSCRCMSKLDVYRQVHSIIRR
Put plainly: binding ELISA on coated VEGFC.

Another assay deals with T4, human VEGF-B (human, UniProt P49765-2 22-188, limits assumed).
T4 construct: also called hVEGF-B
T4 sequence (looked up): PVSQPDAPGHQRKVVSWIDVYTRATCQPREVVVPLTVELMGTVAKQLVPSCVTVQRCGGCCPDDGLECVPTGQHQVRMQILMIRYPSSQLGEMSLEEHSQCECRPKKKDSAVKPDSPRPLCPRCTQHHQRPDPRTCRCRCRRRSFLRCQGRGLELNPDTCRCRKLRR
In words: binding ELISA on coated VEGFB. As to the method: (§2) Binding to VEGFB, VEGFC, VEGFD and PIGF is assessed via a solid phase binding ELISA. In brief, VEGFB, VEGFC, VEGFD and PIGF (R&D Systems, Minneapolis, Minn., USA) are coated overnight at 4° C. at 1 μg/mL in a 96-well MaxiSorp plate (Nunc, Wiesbaden, Germany). Wells are blocked with a casein solution (1% in PBS). […] As positive controls serial dilutions of the appropriate receptors are taken along and detected with horseradish peroxidase (HRP)-conjugated goat anti-human IgG, Fc specific antibody (Jackson Immuno Research Laboratories Inc., West Grove, Pa., USA) and a subsequent enzymatic reaction in the presence of the substrate TMB (3,3′,5,5′-tetramentylbenzidine) (Pierce, Rockford, Ill., USA).

Assay [3] concerns the target T5, recombinant human VEGF165 (human, UniProt P15692-4 27-191).
T5 construct: also called hVEGF165; rhVEGF165
In words: hVEGF165/hVEGFR2-Fc competition AlphaScreen. As to the method: (§3) Finally, streptavidin donor beads (20 μg/ml) are added and after 1 hour of incubation in the dark, fluorescence is measured on the Envision microplate reader.
A general note: Alpha assays give light when donor and acceptor beads are brought close together.

Assay [4] addresses T5, recombinant human VEGF165. In words: binding ELISA, coated rhVEGF165.
Target sequence in this assay (P15692 other isoform, or with tags, fused parts or gaps limits assumed): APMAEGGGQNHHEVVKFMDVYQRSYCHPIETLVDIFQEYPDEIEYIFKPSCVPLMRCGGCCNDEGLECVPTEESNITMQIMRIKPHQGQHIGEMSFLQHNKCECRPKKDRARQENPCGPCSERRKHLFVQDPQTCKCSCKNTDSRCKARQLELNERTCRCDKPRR
In assay [5] the target is T5, recombinant human VEGF165. Put plainly: VEGF165/hVEGFR1-Fc competition AlphaScreen. The procedure: as §3
Target sequence in this assay (P15692 other isoform, or with tags, fused parts or gaps limits assumed): as above
The target of assay [6] is T6, human VEGF-D (human, UniProt O43915 93-201).
T6 construct: also called hVEGF-D
T6 sequence (looked up): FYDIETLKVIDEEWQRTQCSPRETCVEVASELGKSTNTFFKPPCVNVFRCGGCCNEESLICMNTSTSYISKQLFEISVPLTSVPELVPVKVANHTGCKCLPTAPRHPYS
Put plainly: binding ELISA on coated VEGF D. As to the method:
as §2

In another assay the target is T7, human PIGF (human, UniProt P49763-2 21-149, limits assumed).
T7 construct: also called hPIGF; PLGF
T7 sequence (looked up): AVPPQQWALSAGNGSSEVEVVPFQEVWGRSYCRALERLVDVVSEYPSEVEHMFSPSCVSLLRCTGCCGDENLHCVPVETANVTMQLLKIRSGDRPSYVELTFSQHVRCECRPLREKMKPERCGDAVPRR
Put plainly: binding ELISA on coated PIGF. The procedure:
as §2

Assay [7] concerns the target T5, recombinant human VEGF165. In words: kd1; SPR Biacore T100, hVEGF165 on chip, Two State Reaction model. As to the method: (§4) Samples are injected for 2 min and allowed to dissociate up to 20 min at a flow rate of 45 μI/min. In between sample injections, the chip surface is regenerated with 100 mM HCl. HBS-EP+(Hepes buffer pH7.4+EDTA) is used as running buffer. Binding curves are fitted using a Two State Reaction model by Biacore T100 Evaluation Software v2.0.1.
(§5) ^{(a)}KD = kd1/kₐ₁ * (kd2/(kd2 + kₐ₂)) ^{(b)}Curves are fitted using a Two State Reaction model by Biacore T100 Evaluation Software v2.0.1
Target sequence in this assay (P15692 other isoform, or with tags, fused parts or gaps limits assumed): as the sequence (P15692 other isoform, or with tags, fused parts or gaps limits assumed) above

In assay [8] the target is T5, recombinant human VEGF165. Put plainly: VEGF/VEGFR2 competition AlphaScreen. As to the method:
as §3
Target sequence in this assay (P15692 other isoform, or with tags, fused parts or gaps limits assumed): as the sequence (P15692 other isoform, or with tags, fused parts or gaps limits assumed) above

Assay [9] has as its target T8, recombinant mouse VEGF164 (mouse, UniProt Q00731-2 27-190).
T8 construct: biotinylated in the mVEGFR2 AlphaScreen; also called rmVEGF164; mVEGF164
T8 sequence (looked up): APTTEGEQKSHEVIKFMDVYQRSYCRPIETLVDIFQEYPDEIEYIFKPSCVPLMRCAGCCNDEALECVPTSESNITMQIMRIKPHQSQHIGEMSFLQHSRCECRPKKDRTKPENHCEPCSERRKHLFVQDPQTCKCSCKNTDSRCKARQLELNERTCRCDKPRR
In words: binding ELISA, coated rmVEGF164. As to the method:
(§6) Cross-reactivity to mouse VEGF164 is determined using a binding ELISA. […] Wells are blocked with a casein solution (1% in PBS). […] A mouse VEGF164 reactive mAb is included as positive control.

Assay [10] has as its target T5, recombinant human VEGF165. In words: SPR Biacore T100, Two State Reaction model; KD = kd1/ka1 * (kd2/(kd2 + ka2)). The procedure: as §4, §5
Target sequence in this assay (P15692 other isoform, or with tags, fused parts or gaps limits assumed): as the sequence (P15692 other isoform, or with tags, fused parts or gaps limits assumed) above
For orientation: SPR reads the build-up and loss of mass on a sensor chip optically.

Assay [11] concerns the target T8, recombinant mouse VEGF164. Put plainly: mVEGF164/mVEGFR2-hFc competition AlphaScreen. The procedure:
Finally, streptavidin donor beads (20 μg/ml) are added and after 1 hour of incubation fluorescence is measured on the Envision microplate reader.

Assay [12] deals with T5, recombinant human VEGF165. In words: SPR Biacore T100, hVEGF165 on chip, Two State Reaction model. The procedure: as §4, §5
Target sequence in this assay (P15692 other isoform, or with tags, fused parts or gaps limits assumed): as the sequence (P15692 other isoform, or with tags, fused parts or gaps limits assumed) above
Assay [13] has as its target T5, recombinant human VEGF165. Put plainly: hVEGF165/hVEGFR2-Fc competition ELISA.
The target in assay [14] is T5, recombinant human VEGF165. In words: VEGF/VEGFR1 competition AlphaScreen. As to the method:
as §3

For assay [15], the target named is T9, recombinant human VEGF121 (human, UniProt P15692-9 27-147).
T9 construct: also called rhVEGF121; hVEGF121
T9 sequence (looked up): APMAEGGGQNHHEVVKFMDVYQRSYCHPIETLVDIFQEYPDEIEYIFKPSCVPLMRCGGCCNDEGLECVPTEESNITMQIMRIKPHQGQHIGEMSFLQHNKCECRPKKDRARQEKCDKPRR
In words: binding ELISA, coated rhVEGF121. The procedure:
Binding to recombinant human VEGF121 is assessed via a solid phase binding ELISA. Briefly, recombinant human VEGF121 (R&D Systems, Minneapolis, Minn., USA) is coated overnight at 4° C. at 1 μg/mL in a 96-well MaxiSorp plate (Nunc, Wiesbaden, Germany). Wells are blocked with a casein solution (1% in PBS).

Assay [16] has as its target T5, recombinant human VEGF165. Put plainly: VEGF165/hVEGFR1-Fc competition ELISA.
Assay [17] has as its target T5, recombinant human VEGF165. In words: ka1; SPR Biacore T100, hVEGF165 on chip, Two State Reaction model. As to the method:
as §4, §5

Assay [18] addresses T6, human VEGF-D. Put plainly: binding ELISA on coated VEGF-D. As to the method:
as §2

Assay [19] concerns the target T8, recombinant mouse VEGF164. In words: binding ELISA on coated mouse VEGF164. The procedure:
as §6

T1 sequence (P17948 27-756, change not shown): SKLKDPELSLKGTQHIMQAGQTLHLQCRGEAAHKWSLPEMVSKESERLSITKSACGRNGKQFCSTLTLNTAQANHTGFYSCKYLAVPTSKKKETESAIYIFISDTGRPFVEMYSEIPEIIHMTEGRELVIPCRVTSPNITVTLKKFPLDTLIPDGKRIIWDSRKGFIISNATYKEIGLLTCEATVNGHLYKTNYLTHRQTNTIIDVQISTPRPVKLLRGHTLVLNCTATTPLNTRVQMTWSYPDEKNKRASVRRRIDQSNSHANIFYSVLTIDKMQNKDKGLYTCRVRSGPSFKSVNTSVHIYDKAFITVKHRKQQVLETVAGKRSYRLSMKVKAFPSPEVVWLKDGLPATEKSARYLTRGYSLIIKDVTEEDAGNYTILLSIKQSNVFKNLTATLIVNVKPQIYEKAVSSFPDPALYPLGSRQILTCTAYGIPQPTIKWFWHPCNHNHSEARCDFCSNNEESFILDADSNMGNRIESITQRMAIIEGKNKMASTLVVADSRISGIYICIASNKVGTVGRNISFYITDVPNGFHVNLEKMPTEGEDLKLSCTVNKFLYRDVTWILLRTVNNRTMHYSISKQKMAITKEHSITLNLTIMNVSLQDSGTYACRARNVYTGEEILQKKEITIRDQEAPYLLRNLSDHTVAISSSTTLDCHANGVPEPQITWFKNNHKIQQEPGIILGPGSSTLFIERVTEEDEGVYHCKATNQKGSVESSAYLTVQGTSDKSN
T2 sequence (P35968 20-764, change not shown): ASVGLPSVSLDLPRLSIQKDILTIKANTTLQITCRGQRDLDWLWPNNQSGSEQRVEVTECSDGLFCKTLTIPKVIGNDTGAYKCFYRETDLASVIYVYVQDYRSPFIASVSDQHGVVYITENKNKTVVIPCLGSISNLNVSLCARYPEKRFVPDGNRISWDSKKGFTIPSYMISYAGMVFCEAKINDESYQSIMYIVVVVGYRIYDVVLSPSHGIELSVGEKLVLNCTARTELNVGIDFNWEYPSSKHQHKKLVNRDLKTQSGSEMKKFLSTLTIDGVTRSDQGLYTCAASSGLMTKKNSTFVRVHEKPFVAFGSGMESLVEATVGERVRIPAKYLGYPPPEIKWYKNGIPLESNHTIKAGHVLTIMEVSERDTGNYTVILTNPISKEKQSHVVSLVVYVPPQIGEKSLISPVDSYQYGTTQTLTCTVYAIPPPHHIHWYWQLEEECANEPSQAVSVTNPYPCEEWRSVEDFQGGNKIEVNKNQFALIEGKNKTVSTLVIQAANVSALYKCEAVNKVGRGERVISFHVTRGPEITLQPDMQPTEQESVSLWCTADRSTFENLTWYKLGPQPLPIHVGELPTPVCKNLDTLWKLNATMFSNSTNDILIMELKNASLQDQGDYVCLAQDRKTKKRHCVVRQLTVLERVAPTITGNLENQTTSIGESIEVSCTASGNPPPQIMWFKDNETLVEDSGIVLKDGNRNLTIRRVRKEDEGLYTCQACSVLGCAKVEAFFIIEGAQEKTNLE

B1: recombinant human VEGF109 (ligand, UniProt P15692 207-315, looked up)
chain: APMAEGGGQNHHEVVKFMDVYQRSYCHPIETLVDIFQEYPDEIEYIFKPSCVPLMRCGGCCNDEGLECVPTEESNITMQIMRIKPHQGQHIGEMSFLQHNKCECRPKKD
notes: also called rhVEGF109
For the molecule B1, the binding result with human VEGFR1-Fc chimera and with human VEGFR2-Fc chimera was “binds” throughout.

B2: VEGFBII022 (VHH)
chain: EVQLVESGGGLVQTGDSLRLSCEVSGRTFSSYSMGWFRQAQGKEREFVVAISKGGYKYDSVSLEGRFTISKDNAKNTVYLQINSLKPEDTAVYYCASSRAYGSSRLRLADTYEYWGQGTQVTVSSGGGGSGGGSEVQLVESGGGLVQPGGSLRLSCVASGIRFMSMAWYRQAPGKHRELVARISSGGTTAYVDSVKGRFTISRDNSKNTVYLQMNSLKAEDTAVYYCNTFSSRPNPWGAGTQVTVSS
notes: biparatopic bivalent VHH in one chain; also called VEGFBII23B04-9GS-5B05
A word on the % inhibition: it is the share of the control response that was lost under treatment. As a reminder, the IC50 is the concentration needed to halve the response being measured. By EC50 is commonly meant the concentration that produces a half-maximal response. Usually koff stands for a measure of how fast the partners let go of each other. Broadly, the Kd is the equilibrium constant for the complex coming apart. By kon is commonly meant a measure of how fast the partners come together. B2: the “% inhibition, VEGF HUVEC proliferation assay” value with VEGF [1] was found to be 100%. Moreover, in the assay with VEGF [1], the “IC50 (nM), VEGF HUVEC proliferation assay” value is 0.34 nM. In addition, the “% inhibition, VEGF HUVEC Erk phosphorylation assay” value in the assay with VEGF [2] amounted to 94%. In addition, the “IC50 (nM), VEGF HUVEC Erk phosphorylation assay” value in the assay with VEGF [2] was found to be 0.18 nM. For the same molecule, the binding result with human VEGF-C, with human VEGF-B, with human VEGF-D [6] and with human PIGF was “no binding (tested: 5e-7 M)” in each case. For the same molecule, the “% inhibition” value in [3] was found to be 100%; in assay [5] it was 98%; in assay [13], 100%; in [14], 100%; in [16], 89%. In addition, the IC50 in assay [3] came to 0.007 nM; in assay [5] it was 0.009 nM; in assay [8], 0.007 nM; in assay [11], 108 nM; in assay [13] it was 0.164 nM; in [14], 0.008 nM. In assay [16], the IC50 is 0.225 nM. Moreover, the figures for the EC50 in assay [4], in assay [9] and in assay [15] were 0.224 nM, 0.464 nM and 0.54 nM, respectively. The koff in [7] amounted to 0.0091 s⁻¹. The Kd in assay [10] was determined as 0.14 nM. Besides, in assay [12], the ka2 was determined as 0.014 s⁻¹. Further, the kd2 in [12] is 0.00026 s⁻¹. Further, the association rate constant (kon) in [17] was 1.2e+06 M⁻¹ s⁻¹.

B3: VEGFBII010 (VHH)
chain: EVQLVESGGGLVQTGDSLRLSCEVSGRTFSSYSMGWFRQAQGKEREFVVAISKGGYKYDSVSLEGRFTISKDNAKNTVYLQINSLKPEDTAVYYCASSRAYGSSRLRLADTYEYWGQGTQVTVSSGGGGSGGGGSGGGGSGGGGSGGGGSGGGGSGGGGSEVQLVESGGGLVQTGDSLRLSCEVSGRTFSSYSMGWFRQAQGKEREFVVAISKGGYKYDSVSLEGRFTISKDNAKNTVYLQINSLKPEDTAVYYCASSRAYGSSRLRLADTYEYWGQGTQVTVSS
notes: bivalent VHH in one chain; also called VEGFBII23B04-35GS-23B04; homodimeric VEGFBII23B04
For B3, the “% inhibition, VEGF HUVEC proliferation assay” value in the assay with VEGF [1] was 95%. The “IC50 (nM), VEGF HUVEC proliferation assay” value in the assay with VEGF [1] turned out to be 0.22 nM. Moreover, in the assay with VEGF [2], the “% inhibition, VEGF HUVEC Erk phosphorylation assay” value came out at 92%. For the same molecule, the “IC50 (nM), VEGF HUVEC Erk phosphorylation assay” value with VEGF [2] stood at 0.19 nM. In addition, the binding result is “no binding (tested: 5e-7 M)” with human VEGF-C; “no binding (tested: 5e-7 M)” with human VEGF-B; “no binding (tested: 5e-7 M)” with human PIGF; “no binding (tested: 5e-7 M)” with human VEGF-D [18]; “binds” in assay [19]. Moreover, the “% inhibition” value in assay [3] came to 100%; in [5], 70%; in assay [13], 100%; in assay [16] it was 67%. For the same molecule, the IC50 in assay [3] stood at 0.016 nM; in [5], 0.021 nM; in assay [13], 0.049 nM; in [16], 0.0735 nM. Besides, the EC50 in assay [4] amounted to 0.428 nM; in assay [15], 0.92 nM. In addition, in [7], the koff came to 0.017 s⁻¹. Moreover, the Kd in assay [10] was found to be 0.16 nM. In [12], the ka2 was 0.029 s⁻¹. Also, the kd2 in [12] stood at 0.00013 s⁻¹. Further, the kon in assay [17] was found to be 450000 M⁻¹ s⁻¹.
